Measured values: patent publication US20170074883A1

Columns and labels:
[1] = molecular target: CD38 on the surface of the HCL cell line JOK-1 and its derivatives (JOK-Empty, JOK-RhoH, JOK-CD38-WT) (human) (UniProt P28907); assay: flow cytometry, FITC-IB6 on JOK-Empty cells (RhoH not induced), mean of 4 experiments
[2] = molecular target: CD38 on the surface of the HCL cell line JOK-1 and its derivatives (JOK-Empty, JOK-RhoH, JOK-CD38-WT) (human) (UniProt P28907); assay: flow cytometry, FITC-IB6 on JOK-RhoH cells (RhoH induced, lower CD38 expression), mean of 4 experiments

mean fluorescence intensity (after subtraction of isotype control) [1]: 71.8
mean fluorescence intensity (after subtraction of isotype control) [2]: 19.7
Substance: FITC-conjugated version of the monoclonal antibody IB6 directed against CD38 (Miltenyi Biotec)
